Laboratory results from US20260256782.

Test system: ZF3-KRAB (MR-32054 bicistronic component) (synthetic construct)
Experiment: cell_activity
Conditions: 48 h, 0.5 ug/ml, combined effect with ZF9-MQ1, binding not measured directly

ZF3-KRAB (MR-32054 bicistronic component) (synthetic construct), sequence (chain, as listed by the source): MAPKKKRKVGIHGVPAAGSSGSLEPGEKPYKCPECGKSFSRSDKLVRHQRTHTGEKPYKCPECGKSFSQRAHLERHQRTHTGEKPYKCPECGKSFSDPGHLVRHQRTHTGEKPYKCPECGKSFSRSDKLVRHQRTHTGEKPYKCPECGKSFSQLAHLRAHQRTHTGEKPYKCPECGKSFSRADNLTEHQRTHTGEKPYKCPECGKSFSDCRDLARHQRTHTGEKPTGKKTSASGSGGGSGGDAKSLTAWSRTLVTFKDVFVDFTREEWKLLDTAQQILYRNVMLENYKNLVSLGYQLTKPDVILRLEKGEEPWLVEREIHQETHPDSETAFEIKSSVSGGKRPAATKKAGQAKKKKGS

Substance: MYC upstream anchor (CTCF) ZF3 target site
- activity (% MYC protein reduction) (H1975 cells): 30
- activity (% MYC protein reduction) (PC9 cells): 47
